What all share (assay): BLI heatmap
The target of experiment [1] is T1, LA peptide LAKLDEESILKQK (XAKLDEESILKQK, X = L).
T1 construct: Immobilized on the biolayer interferometry sensor
T1 peptide: LAKLDEESILKQK

Experiment [2] deals with T2, F peptide FAKLDEESILKQK (XAKLDEESILKQK, X = F).
T2 construct: Immobilized on the biolayer interferometry sensor
T2 peptide: FAKLDEESILKQK

The target of experiment [3] is T3, IA peptide IAKLDEESILKQK (XAKLDEESILKQK, X = I).
T3 construct: Immobilized on the biolayer interferometry sensor
T3 peptide: IAKLDEESILKQK

The target of experiment [4] is T4, VA peptide VAKLDEESILKQK (XAKLDEESILKQK, X = V).
T4 construct: Immobilized on the biolayer interferometry sensor
T4 peptide: VAKLDEESILKQK

The target in experiment [5] is T1, LA peptide LAKLDEESILKQK ….
Experiment [6] addresses T5, Y peptide YAKLDEESILKQK (XAKLDEESILKQK, X = Y).
T5 construct: Immobilized on the biolayer interferometry sensor
T5 peptide: YAKLDEESILKQK

Experiment [7] addresses T2, F peptide FAKLDEESILKQK (XAKLDEESILKQK, …).
Experiment [8] addresses T6, W peptide WAKLDEESILKQK (XAKLDEESILKQK, X = W).
T6 construct: Immobilized on the biolayer interferometry sensor
T6 peptide: WAKLDEESILKQK

Experiment [9] concerns the target T3, IA peptide IAKLDEESILKQK ….
Experiment [10] addresses T4, VA peptide VAKLDEESILKQK ….

Data on eight molecules can be found in patent US20210364527A1 (QUANTUM SI, published 2021).

Read-outs that look alike come from different tables or passages of the source.

B1: PS562 (other)
chain: MSDQQSMVAEPEVVVHTQDEKKLEKQNKRKKQPRYNVVLWDDTDHSYDYVVLMMKQLFHHPIETGFQIAKQVDKGGKAICLTTTMEHAELKRDQIHAFGKDDLIARCTGSMSATIEPVPE
For B1, the binding result in [1], in experiment [2], in experiment [3] and in experiment [4] was “no binding” throughout.

B2: PS369 (other)
chain: MTSTLRARPARDTDLQHRPYPHYRIIVLDDDVNTFQHVVNCLVTFLPGMTRDQAWAMAQQVDGEGSAVVWTGPQEQAELYHVQLGNHGLTMAPLEPV
Consider B2, for which the binding result in experiment [5], in experiment [6] and in experiment [7] was “binds” throughout.

B3: PS431 (other)
chain: MIISSVKSSPSTETLSRTELQLGGVWRVVVLNDPVNLMSYVMMIFKKIFGFNETVARRHMLEVHEKGRSVVWSGLREKAEAYVFTLQQWHLTAVLESDETH
For the molecule B3, the binding result in [5], in experiment [6], in [8], in experiment [9] and in [10] was “no binding” in each case.

B4: PS567 (other)
chain: MADYEDAGEDALEDDFDHGTVTVAPQKPEPKKQSENKRQANRQPRYNVLLWDSEDHTFEYVEKMLRELFGHIKKQCQIIAEQVDQEGRAVVLTTTLEHAELKRDQIHAYGKDQLEGSKGSMWSTIEAVD
Take B4: the binding result in experiment [1], in [2], in experiment [3] and in experiment [4] was “no binding” in each case.

B5: PS377 (other)
chain: MADISKSRPEIGGPKGPQFGDSDRGGGVAVITKPVTKKKFKRKSQTEYEPYWHVLLHHDNVHTFEYATGAIVKVVRTVSRKTAHRITMQAHVSGVATVTTTWKAQAEEYCKGLQMHGLTSSIAPDSSFTH
On to B5, for which the binding result in experiment [5] is given as “no binding”; in [6] it was “no binding”; in [8], “binds”; in experiment [9] it was “no binding”; in experiment [10], “no binding”.

B6: PS429 (other)
chain: MSVQEEVLEEVKTKERVNKQNQIIVFNDDVNTFDHVIDMLIATCDHDPIQAEQCTMLIHYKGKCEVKTGDYDDLKPRCSKLLDAGISAEIQ
For B6, the binding result in experiment [5], in experiment [6], in [8], in experiment [9] and in [10] was “no binding” in each case.

B7: PS406 (other)
chain: MPDATTTPRTKTLTRTARPPLHKVILVNDDFTPREFVVRLLKAEFRTTGDEAQRIMITAHMKGSCVVAVFTREIAESKATRATETARAEGFPLLFTTEPEE
Turning to B7, the binding result is recorded as “no binding” in [5]; “binds” in experiment [6]; “binds” in experiment [8]; “binds” in experiment [7]; “no binding” in experiment [9]; “no binding” in experiment [10].

B8: PS391 (other)
chain: MGQTVEKPRVEGPGTGLGGSWRVIVRNDDHNTFDHVARTLARFIPGVSLERGHEIAKVIHTTGRAVVYTGHKEAAEHYWQQLKGAGLTMAPLEQG
On to B8, for which the binding result in [5], in experiment [6] and in [7] was “binds” each time.
